# From patent US9549967B2, “Regulation of sodium channels by PLUNC proteins” (The University of North Carolina at Chapel Hill, priority 2009, dated 2017)
# T1: αβγENaC (Rattus norvegicus, UniProt P37089+P37090+P37091)
# T1 construct: expressed in transfected cells; host or cells: Xenopus laevis oocytes (cRNA injection)
# T1 sequence (P37089 1-698): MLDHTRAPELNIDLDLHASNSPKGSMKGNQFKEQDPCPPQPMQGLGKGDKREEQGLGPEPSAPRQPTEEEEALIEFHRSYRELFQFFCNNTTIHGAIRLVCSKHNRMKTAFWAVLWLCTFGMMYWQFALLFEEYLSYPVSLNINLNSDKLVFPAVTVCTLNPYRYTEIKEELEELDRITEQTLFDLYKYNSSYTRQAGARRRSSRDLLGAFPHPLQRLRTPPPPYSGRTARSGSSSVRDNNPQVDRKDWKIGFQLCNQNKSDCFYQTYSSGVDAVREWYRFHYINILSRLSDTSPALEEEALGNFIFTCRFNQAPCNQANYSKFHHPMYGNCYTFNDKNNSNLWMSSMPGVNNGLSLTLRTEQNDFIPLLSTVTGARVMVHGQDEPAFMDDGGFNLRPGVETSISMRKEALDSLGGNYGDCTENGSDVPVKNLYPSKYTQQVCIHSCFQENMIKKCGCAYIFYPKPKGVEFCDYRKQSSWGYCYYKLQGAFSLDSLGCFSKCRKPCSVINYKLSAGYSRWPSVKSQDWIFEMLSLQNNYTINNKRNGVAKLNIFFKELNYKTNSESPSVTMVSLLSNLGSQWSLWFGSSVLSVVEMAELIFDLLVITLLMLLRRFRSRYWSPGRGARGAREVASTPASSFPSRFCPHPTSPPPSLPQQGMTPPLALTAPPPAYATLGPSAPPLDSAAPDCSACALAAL
# T1 sequence (P37090 1-638): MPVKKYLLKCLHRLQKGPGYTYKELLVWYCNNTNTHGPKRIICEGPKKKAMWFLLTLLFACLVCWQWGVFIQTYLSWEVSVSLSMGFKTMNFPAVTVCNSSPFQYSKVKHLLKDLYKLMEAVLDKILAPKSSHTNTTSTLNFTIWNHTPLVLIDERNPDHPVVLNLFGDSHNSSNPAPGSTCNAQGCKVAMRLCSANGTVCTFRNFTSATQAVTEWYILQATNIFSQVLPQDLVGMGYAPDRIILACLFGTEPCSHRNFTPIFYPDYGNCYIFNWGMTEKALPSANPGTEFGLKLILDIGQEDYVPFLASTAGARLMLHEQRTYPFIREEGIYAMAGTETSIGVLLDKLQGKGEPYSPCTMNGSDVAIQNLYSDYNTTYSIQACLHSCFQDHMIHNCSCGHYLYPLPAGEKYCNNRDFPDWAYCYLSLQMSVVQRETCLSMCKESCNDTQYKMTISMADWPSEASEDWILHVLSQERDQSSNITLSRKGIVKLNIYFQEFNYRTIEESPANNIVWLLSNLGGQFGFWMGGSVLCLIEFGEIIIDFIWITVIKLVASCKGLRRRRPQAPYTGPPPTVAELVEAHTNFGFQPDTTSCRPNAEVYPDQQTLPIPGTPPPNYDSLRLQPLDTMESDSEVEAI
# T1 sequence (P37091 1-650): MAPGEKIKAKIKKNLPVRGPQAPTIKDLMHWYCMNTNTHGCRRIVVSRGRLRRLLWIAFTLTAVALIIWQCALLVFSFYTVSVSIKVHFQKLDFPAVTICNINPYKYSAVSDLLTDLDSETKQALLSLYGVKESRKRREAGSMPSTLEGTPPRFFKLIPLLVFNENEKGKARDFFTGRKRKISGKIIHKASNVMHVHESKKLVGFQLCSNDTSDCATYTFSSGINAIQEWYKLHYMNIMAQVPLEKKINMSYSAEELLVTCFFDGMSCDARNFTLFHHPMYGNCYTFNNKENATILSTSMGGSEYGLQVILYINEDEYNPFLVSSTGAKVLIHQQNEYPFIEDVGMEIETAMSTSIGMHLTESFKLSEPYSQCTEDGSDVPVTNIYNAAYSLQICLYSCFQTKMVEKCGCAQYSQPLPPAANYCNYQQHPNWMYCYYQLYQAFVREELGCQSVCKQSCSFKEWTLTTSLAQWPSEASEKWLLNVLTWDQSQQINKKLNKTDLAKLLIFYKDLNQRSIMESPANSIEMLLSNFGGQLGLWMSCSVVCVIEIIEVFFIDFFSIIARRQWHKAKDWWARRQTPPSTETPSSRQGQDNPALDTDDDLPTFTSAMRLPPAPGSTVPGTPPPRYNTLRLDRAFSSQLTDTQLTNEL
# Target: T1, αβγENaC
# Experiment: Amiloride-sensitive whole cell current in Xenopus laevis oocytes expressing ENaC (two electrode voltage clamp)
# Format: cell-based
# Experimental: Oocyte studies. Xenopus laevis oocytes were harvested and injected as described (Donaldson, et al., J. Biol. Chem. 277:8338 (2002)). Defolliculated healthy stage V-VI oocytes were injected with 0.3 ng of cRNA of each ENaC subunit. Injected oocytes were kept in modified Barth's saline (in mM: 88 NaCl, 1 KCl, 2.4 NaHCO3, 0.3 Ca(NO3)2, 0.41 CaCl2, 0.82 MgSO4, and 15 HEPES, adjusted to pH 7.35 with Tris). Oocytes were studied 24 hr after injection using the two electrode voltage clamp technique as previously described (Donaldson, et al., J. Biol. Chem. 277:8338 (2002)). Oocytes were clamped at a holding potential of […]. The change in amiloride-sensitive whole cell current as an indicator of ENaC activity was determined by subtracting the corresponding current value measured in the presence of 10 μM amiloride from that measured before the application of amiloride.
Molecule,ENaC activity on trypsin exposure (oocytes),ability of CAP1 and CAP2 to activate ENaC (ENaC ± SPLUNC1 co-expressed with prostasin (CAP1) and CAP2),"inhibition of ENaC by full-length and truncated SPLUNC1 (oocyte current inhibition assay, pH 7.4, all p<0.0001)",trypsin stimulation of ENaC activity (trypsin-exposed oocytes ± SPLUNC1)
trypsin [reference compound],increased ENaC activity,,,
"SPLUNC1: human SPLUNC1, 256 amino acid secreted PLUNC protein (SEQ ID NO:1); rSPLUNC1 = V5/6His-tagged protein purified from HEK293 media (protein, listed as Homo sapiens, V5/6His tag, rSPLUNC1 = V5/6His-tagged protein purified from HEK293 media) MFQTGGLIVFYGLLAQTMAQFGGLPVPLDQTLPLNVNPALPLSPTGLAGSLTNALSNGLLSGGLLGILENLPLLDILKPGGGTSGGLLGGLLGKVTSVIPGLNNIIDIKVTDPQLLELGLVQSPDGHRLYVTIPLGIKLQVNTPLVGASLLRLAVKLDITAEILAVRDKQERIHLVLGDCTHSPGSLQISLLDGLGPLPIQGLLDSLTGILNKVLPELVQGNVCPLVNEVLRGLDITLVHDIVNMLIHGLQFVIKV",,significantly reduced,Significant inhibition,attenuated
